Results published in paper PMC8024308, “Epitope-directed monoclonal antibody production using a mixed antigen cocktail facilitates antibody characterization and validation” (Communications Biology, 2021).

Target: the molecule itself
Test: ELISA; two-site sandwich ELISA with the same mAb (30D12 or 4F2) as coated capture (5 ug/ml) and as biotinylated detector (1 ug/ml); recombinant hANKRD1 at 20 ng/ml; self-pairing read as dimer

B1: recombinant human ankyrin repeat domain 1 (hANKRD1; OriGene Technologies) (natural protein)
chain: not shown
notes: human ankyrin repeat domain 1 (ANKRD1), full-length recombinant protein, N-terminal His-tagged, OriGene Technologies; expected mass 43 kDa; The preparation holds monomer (43 kDa) and dimer (86 kDa) on non-reducing SDS-PAGE; also called recombinant hANKRD1; source: bought: OriGene Technologies (bacterially derived recombinant preparation)
  binding result: binds
